The test system of one assay is skin keratin. Briefly: Qualitative binding to skin (adhesive tape keratin layer, Examples 8 and 14). The settings on record: transparent adhesive tape with human skin keratin layer; negative control buffer only. As to the method: A visual qualitative test was developed in order to examine whether KBD binds to skin.
Blocking solution: Western Blocking Reagent 1921673 Roche (10× solution) diluted in TBS.
TBS: 20 mM Tris; 150 mM NaCl pH 7.5
The first step is the transfer of the outer keratin layer of the skin to a stable support. For this purpose, a transparent adhesive tape is firmly applied to depilated human skin and removed again. The test can be carried out directly on the transparent adhesive strip, or the adhering keratin layer can be transferred to a glass slide through renewed adhesion.
A visual qualitative test was used in order to examine whether the KBD-D (SEQ ID No.: 168) binds to skin.
Blocking solution: Western Blocking Reagent 1921673 Roche (10× solution) diluted in TBS
A blue colored precipitate, being a reaction of the antipolyhistidine-AP conjugate interacting with the KBD-D, was visible on the transparent adhesive tape treated with KBD-D. As negative control, a transparent adhesive tape was treated only with buffer. No significant blue coloration could be seen here.

Another assay concerns human keratinocytes. Briefly: Quantitative binding to skin (Example 15). How it is done:
(§1) In order to investigate the binding strength of the KBD-D (SEQ ID No.:168) to skin and hair compared to the KBD-B (SEQ ID No.:166), a quantitative test was carried out. In this test firstly hair was incubated with KBD-B or KBD-D and excess KBD-D or -D was washed off. An antibody-peroxidase conjugate was then coupled via the His/tag of the KBD-B or -D. Nonbound antibody-peroxidase conjugate was washed off again. The bound antibody-peroxidase conjugate can convert a colorless substrate (TMB) into a colored product, which was measured photometrically at 405 nm. The intensity of the absorption indicates the amount of bound KBD-B or -D.
The test for binding to skin was carried out with human keratinocytes in microtiter plates as follows. • 2× washing with PBS/0.05% Tween 20 • addition of 1 ml of 1% BSA in PBS and incubation for 1 h at room temperature, gentle swinging movements (900 rpm). • removal of the supernatant • addition of 100 μg of KBD in PBS with 0.03% Tween 20; incubation for 2 h at room temperature and gentle swinging movements (900 rpm). • removal of the supernatant • 3× washing with PBS/0.05% Tween 20 • incubation with 1 ml of monoclonal mouse anti-tag-His6 antibodies for 2-4 h at room temperature, gentle swinging movement (900 rpm) • 3× washing with PBS/0.05% Tween 20 • addition of peroxidase substrate (1 ml/Eppendorf vessels composition see below) reaction until a blue coloration (about 90 seconds). • reaction stopped with 100 μl of 2 M H2SO4. • the absorption was measured at 405 nm.
(§2) Peroxidase Substrate (Prepared Shortly Beforehand):
0.1 ml TMB solution (42 mM TMB in DMSO) +10 ml substrate buffer (0.1 M sodium acetate pH 4.9) +14.7 μl H2O2 3% strength

Another assay has as its system hair (human). Briefly: Quantitative binding to hair (Example 15). How it is done:
as §1
In order to characterize the hair binding of the KBD-D compared to the KBD-B, the following binding assay was carried out:
5 mg of hair (human) were cut into sections 5 mm in length and transferred to Eppendorf vessels (protein low-bind). • addition of 1 ml of ethanol for degreasing • centrifugation, removal of ethanol and washing of the hair with H2O • centrifugation, removal of the supernatant • addition of the keratin-binding domains to be tested (coupled to tag—e.g. His6, HA etc.) in 1 ml of PBS/0.05% Tween 20; incubation for 2 h at room temperature with gentle swinging movements • centrifugation, removal of the supernatant • 3× washing with PBS/0.05% Tween 20 • incubation with 1 ml monoclonal mouse anti-tag-(His6 or HA) antibodies with peroxidase conjugate (1:2000 in PBS/0.05% Tween 20) [Monoclonal AntipolyHistidine Peroxidase Conjugate, produced in mouse, lyophilized powder, Sigma] for 2-4 h at room temperature, gentle swinging movement • 3× washing with PBS/0.05% Tween 20 • addition of peroxidase substrate (1 ml/Eppendorf vessel) • allow reaction to proceed until blue coloration (90 seconds). • stop the reaction with 100 μl of 2 M H2SO4.
The absorption was measured at 405 nm
as §2
0.1 ml TMB solution (42 mM TMB in DMSO) +10 ml substrate buffer (0.1 M sodium acetate pH 4.9) +14.7 μl H2O2 3% strength BSA=bovine serum albumin PBS=phosphate buffered salt solution Tween 20=polyoxyethylene sorbitan monolaureate, n about 20 TMB=3,5,3′,5′-tetramethylbenzidine

The target in assay [1] is human hair keratin (human hair, cut into 5 mm sections) (human). Briefly: quantitative hair binding test, anti-polyHis peroxidase conjugate, TMB. The settings on record: scale: absorption at 405 nm, standardized to the surface.
The target is the same in assay [2]. Nature of the assay: quantitative hair binding test, loss relative to untreated hair after 10% strength SDS treatment.
Assay [3] concerns the target human skin keratin (human). Nature of the assay: quantitative skin binding test, loss relative to untreated skin after 10% strength SDS treatment.
The target in assay [4] is human skin keratin (human). Nature of the assay: quantitative skin binding test (human keratinocytes in microtiter plates), anti-His antibody, TMB. The settings on record: scale: absorption at 405 nm, standardized to the surface.
Assay [5] concerns the target human hair keratin (human hair, cut into 5 mm sections) (human). Nature of the assay: quantitative hair binding test, anti-polyHis peroxidase conjugate, TMB; after 10% strength SDS treatment. The following applies: scale: absorption at 405 nm, standardized to the surface.
Assay [6] addresses human skin keratin (human). Nature of the assay: quantitative skin binding test (human keratinocytes in microtiter plates), anti-His antibody, TMB; after 10% strength SDS treatment. The settings on record: scale: absorption at 405 nm, standardized to the surface.
The mark [7] stands for this setting: values standardized to the surface, after 10% strength SDS treatment.
Where [8] appears, read: values standardized to the surface, no SDS treatment.

B1: KBD-D (keratin-binding domain of human plakophilin) with N-terminal histidine anchor (SEQ ID No.: 168) (protein)
chain: MRGSHHHHHHGSACELGTMNHSPLKTALAYECFQDQDNSTLALPSDQKMKTGTSGRQRVQEQVMMTVKRQKSKSSQSSTLSHSNRGSMYDGLADNYNYGTTSRSSYYSKFQAGNGSWGYPIYNGTLKREPDNRRFSSYSQMENWSRHYPRGSCNTTGAGSDICFMQKIKASRSEPDLYCDPRGTLRKGTLGSKGQKTTQNRYSFYSTCSGQKAIKKCPVRPPSCASKQDPVYIPPISCNKDLSFGHSRASSKICSEDIECSGLTIPKAVQYLSSQDEKYQAIGAYYIQHTCFQDESAKQQVYQLGGICKLVDLLRSPNQNVQQAAAGALRNLVFRSTTNKLETRRQNGIREAVSLLRRTGNAEIQKQLTGLLWNLSSTDELKEELIADALPVLADRVIIPFSGWCDGNSNMSREVVDPEVFFNATGCLRNLSSADAGRQTMRNYSGLIDSLMAYVQNCVAASRCDDKSVENCMCVLHNLSYRLDAEVPTRYRQLEYNARNAYTEKSSTGCFSNKSDKMMNNNYDCPLPEEETNPKGSGWLYHSDAIRTYLNLMGKSKKDATLEACAGALQNLTASKGLMSSGMSQLIGLKEKGLPQIARLLQSGNSDVVRSGASLLSNMSRHPLLHRVMGNQVFPEVTRLLTSHTGNTSNSEDILSSACYTVRNLMASQPQLAKQYFSSSMLNNIINLCRSSASPKAAEAARLLLSDMWSSKELQGVLRQQGFDRNMLGTLAGANSLRNFTSRF
For B1, in the assay on skin keratin, the “binding to skin keratin (blue colored precipitate)” value is listed as “has bound to the skin keratin”. In the assay with human keratinocytes (relative to untreated skin), the “Relative absorption loss after 10% strength SDS treatment in %, skin” value was 15%. Besides, in the assay on human keratinocytes (summary of Tab. 10), the “binding to skin compared with hair (in words)” value is recorded as “more strongly to skin”. The “Absorption at 405 nm, binding to skin after 10% strength SDS treatment” value with human keratinocytes (setting [7]) stood at 3.15. In the assay on human keratinocytes (setting [8]), the “Absorption at 405 nm, binding to skin” value is recorded as 3.69. Also, the “influence of washing with SDS solution on binding” value in the assay with human keratinocytes (washing with an up to 10% strength SDS solution, in contrast to KBD-B) was “only more weakly influenced”. Moreover, in the assay on hair (human) (relative to untreated hair), the “Relative absorption loss after 10% strength SDS treatment in %, hair” value was found to be 30%. Further, the “binding to hair (in words)” value with hair (human) (summary of Tab. 10) is “can bind to hair”. Also, the “Absorption at 405 nm, binding to hair after 10% strength SDS treatment” value in the assay on hair (human) (setting [7]) turned out to be 0.62. The “Absorption at 405 nm, binding to hair” value in the assay on hair (human) (setting [8]) is reported as 0.88. Besides, the Absorption at 405 nm in [1] was determined as 0.88; in assay [4], 3.69; in assay [5], 0.62; in assay [6], 3.15. Moreover, the Relative absorption loss after 10% strength SDS treatment in % in assay [2] was 30%; in assay [3], 15%.

Source of the values: patent US20090098076A1, “Method For the Production of a Keratin-Binding Effector Molecule” (BASF SE, priority 2005, published 2009).
